Source: patent US20240141039A1 (AGENUS, published 2024)
One block for each binder: values may come before it.

Key:
[1] = molecular target: T1, wild type full-length cynomolgus monkey TIGIT expressed on CHO cells (cynomolgus monkey, UniProt A0A7N9I9V4 89-312); assay: flow cytometry on CHO cells expressing cynomolgus TIGIT, PE anti-human IgG Fc detection
T1 construct: whole, on cells; also called cynomolgus TIGIT-CHO cells

[2] = molecular target: T2, full-length human FcγRIIIa variant V/V expressed on CHO cells (human, UniProt P08637 17-254); assay: flow cytometry, human FcγRIIIa (V/V) CHO cells, representative experiment
T2 construct: whole, on cells; also called human FcγRIIIa-CHO (variant V/V); human FcγRIIIa (V/V) CHO cells
Description: (§1) For the antibody binding assay, a frozen aliquot of human FcγRIIIa-CHO cells (variant V/V or variant F/F) was thawed at 37° C. and then transferred to a tube containing DPBS supplemented with 0.5% Bovine Serum Albumin and 0.05% Sodium Azide (FACS Buffer). Cells were centrifuged at 300 g for five minutes. The supernatant was discarded, and cells resuspended in FACS buffer were seeded in a 96-well U-bottom tissue culture plate at a density of 2×10⁵ cells per well in 50 μL. In a separate microplate, a 2× concentrated intermediate stock of each antibody was prepared. Antibodies were serially diluted 1-to-4 in FACS buffer. A total of 11 working dilutions ranging from 60 μg/mL to 0.000057 μg/mL were prepared. Fifty microlitres of each dilution were then transferred to the microplate containing human FcγRIIIa-CHO (variant V/V or variant F/F) cells. The cells were then incubated for 45 minutes at 4° C. […] After a 30-minute incubation on ice, the cells were washed twice with cold FACS Buffer, and the cells were analyzed by flow cytometry (BD LSR Fortessa Flow Cytometer). The data were analyzed using the FlowJo software by sequentially gating the FSC-A vs. SSC-A, and SSC-H vs. SSC-A. Mean fluorescence intensity (MFI) values for PE were calculated, and the data were plotted by GraphPad Prism software.

[3] = molecular target: T3, wild type full-length human TIGIT expressed on cells (human, UniProt Q495A1 22-244); assay: flow cytometry, blocking of human CD155-Fc-PE binding to CHO cells expressing human TIGIT
T3 construct: whole, on cells; also called human TIGIT-CHO; human TIGIT CHO cells
T3 sequence (looked up): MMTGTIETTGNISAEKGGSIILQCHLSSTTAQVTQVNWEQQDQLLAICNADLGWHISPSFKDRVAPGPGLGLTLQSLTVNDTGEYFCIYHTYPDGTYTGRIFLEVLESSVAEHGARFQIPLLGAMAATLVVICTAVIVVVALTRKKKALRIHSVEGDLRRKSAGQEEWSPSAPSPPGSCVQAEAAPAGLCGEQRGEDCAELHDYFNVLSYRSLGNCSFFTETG
Description: A 4× concentrated intermediate stock of each antibody was prepared in a microplate. Antibodies were serially diluted 1-to-4 in FACS buffer. […] Lastly, 25 μL of human TIGIT-CHO cells, prepared as described above, were added to each well. After a 30-minute incubation on ice, the cells were washed twice with cold FACS Buffer, and the cells were analyzed by flow cytometry (BD LSR Fortessa Flow Cytometer). The data were analyzed using the FlowJo software by sequentially gating on the FSC-A vs. SSC-A and SSC-H vs. SSC-A. Mean fluorescence intensity (MFI) values for PE were calculated, and the data were plotted by GraphPad Prism software and analyzed as described above.

[4] = molecular target: T3, wild type full-length human TIGIT …; assay: flow cytometry on CHO cells expressing human TIGIT, PE anti-human IgG Fc detection
Description: as §1, with “TIGIT-CHO” for “FcγRIIIa-CHO”, “cells” for “cells (variant V/V or variant F/F)”, “TIGIT-CHO” for “FcγRIIIa-CHO (variant V/V or variant F/F)”

[5] = molecular target: T4, full-length ECD of human TIGIT (His-tagged) (human); assay: SPR Biacore T200, geomean of experiments #1 and #2
T4 construct: also called His-tagged human TIGIT; human TIGIT extracellular domain
T4 chain: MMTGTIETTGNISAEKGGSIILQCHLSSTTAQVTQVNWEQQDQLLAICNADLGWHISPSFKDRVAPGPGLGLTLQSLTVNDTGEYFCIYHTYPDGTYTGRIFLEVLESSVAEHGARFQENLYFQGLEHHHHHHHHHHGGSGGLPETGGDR
Description: Briefly, surface plasmon resonance experiments were performed using a Biacore T200 instrument, and the association rate (kₐ), dissociation rate (kd), and dissociation constant (KD) were calculated from each experiment using a 1:1 binding model with Biacore T200 Evaluation Software.
Multispecific molecules were captured using a 30-sec injection at a flow rate of 10 μl/min to reach about 1000 resonance units (RUs). […] The sensor chip was regenerated between cycles with two 30-sec injections of 10 mM glycine, pH 1.5. Sensorgrams were evaluated and fit to a simple Langmuir 1:1 interaction model using the global data analysis option of BIAevaluation 3.0 software. Data quality was verified by visually inspecting deviations and curve fitting, and by evaluating the parameters of Rₘₐₓ, Chi2, and Tc.

T1 sequence (A0A7N9I9V4 entry or part of it): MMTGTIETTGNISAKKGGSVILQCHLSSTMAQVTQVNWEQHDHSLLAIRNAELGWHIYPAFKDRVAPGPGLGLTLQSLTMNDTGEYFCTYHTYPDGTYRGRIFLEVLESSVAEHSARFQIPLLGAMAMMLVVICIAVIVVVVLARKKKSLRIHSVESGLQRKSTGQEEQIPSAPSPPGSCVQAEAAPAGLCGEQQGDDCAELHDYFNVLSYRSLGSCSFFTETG
T2 sequence (P08637 other isoform, or with tags, fused parts or gaps mutant limits assumed): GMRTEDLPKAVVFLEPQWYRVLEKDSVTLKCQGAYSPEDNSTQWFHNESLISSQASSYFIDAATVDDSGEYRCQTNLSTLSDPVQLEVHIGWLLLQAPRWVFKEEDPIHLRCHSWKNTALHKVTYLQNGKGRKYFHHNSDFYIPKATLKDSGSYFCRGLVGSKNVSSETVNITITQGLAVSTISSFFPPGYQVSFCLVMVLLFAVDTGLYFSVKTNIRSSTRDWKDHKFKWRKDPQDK

- EC50 (read off the curve) [1]: ~0.2 µg/mL
B1: anti-TIGIT×CD96 multispecific molecule BA123 (bispecific antibody, human IgG1, kappa, lambda)
heavy 1: QVQLVQSGAEVKKPGASVKVSCKASGYTFTSYGISWVRQAPGQGLEWMGWISAYNANTNYAQKLQGRVTMTTDTSTSTAYMELRSLRSDDTAVYYCARSAGVLGGMDVWGRGTLVTVSSASTKGPSVFPLAPSSKSTSGGTAALGCLVKDYFPEPVTVSWNSGALTSGVHTFPAVLQSSGLYSLSSVVTVPSSSLGTQTYICNVNHKPSNTKVDKRVEPKSCDKTHTCPPCPAPELLGGPDVFLFPPKPKDTLMISRTPEVTCVVVDVSHEDPEVKFNWYVDGVEVHNAKTKPREEQYNSTYRVVSVLTVLHQDWLNGKEYKCKVSNKALPAPIEKTISKAKGQPREPQVYTLPPSREEMTKNQVSLSCAVKGFYPSDIAVEWESNGQPENNYKTTPPVLDSDGSFFLVSKLTVDKSRWQQGNVFSCSVMHEALHNHYTQKSLSLSPG
light 1: not shown
heavy 2: EVQLVQSGAEVKKPGSSVKVSCKASGYTFASYGISWVRQAPGQGLEWMGGITPFFNRVDVAEKFQGRVTITADKSTSTAYIELSSLRSEDTAVYYCARDLRRGGVGDAFDIWGRGTLVTVSSASTKGPSVFPLAPSSKSTSGGTAALGCLVKDYFPEPVTVSWNSGALTSGVHTFPAVLQSSGLYSLSSVVTVPSSSLGTQTYICNVNHKPSNTKVDKRVEPKSCDKTHTCPPCPAPELLGGPDVFLFPPKPKDTLMISRTPEVTCVVVDVSHEDPEVKFNWYVDGVEVHNAKTKPREEQYNSTYRVVSVLTVLHQDWLNGKEYKCKVSNKALPLPEEKTISKAKGQPREPQVYTLPPSREEMTKNQVSLWCLVKGFYPSDIAVEWESNGQPENNYKTTPPVLDSDGSFFLYSKLTVDKSRWQQGNVFSCSVMHEALHNHYTQKSLSLSPG
light 2: QSALTQPRSVSGSPGQSVTISCTGTSPDVGSHAYRSWYQQHPGKAPKLMIYEVSYRPSGVSNRFSGSKSGNTASLTISGLQAEDEADYYCSSYPPSSATVFGAGTKLTVLGQPKAAPSVTLFPPSSEELQANKATLVCLISDFYPGAVTVAWKADSSPVKAGVETTTPSKQSNNKYAASSYLSLTPEQWKSHRSYSCQVTHEGSTVEKTVAPTEC
notes: copies: 1 + 1 + 1 + 1

- Area under the curve (AUC) [2]: 50100
- IC50 (read off the curve) [3]: ~0.01 µg/mL
B2: anti-TIGIT monospecific antibody BA148 (antibody, human IgG1, lambda)
heavy: EVQLVQSGAEVKKPGSSVKVSCKASGYTFASYGISWVRQAPGQGLEWMGGITPFFNRVDVAEKFQGRVTITADKSTSTAYIELSSLRSEDTAVYYCARDLRRGGVGDAFDIWGRGTLVTVSSASTKGPSVFPLAPSSKSTSGGTAALGCLVKDYFPEPVTVSWNSGALTSGVHTFPAVLQSSGLYSLSSVVTVPSSSLGTQTYICNVNHKPSNTKVDKRVEPKSCDKTHTCPPCPAPELLGGPDVFLFPPKPKDTLMISRTPEVTCVVVDVSHEDPEVKFNWYVDGVEVHNAKTKPREEQYNSTYRVVSVLTVLHQDWLNGKEYKCKVSNKALPLPEEKTISKAKGQPREPQVYTLPPSREEMTKNQVSLTCLVKGFYPSDIAVEWESNGQPENNYKTTPPVLDSDGSFFLYSKLTVDKSRWQQGNVFSCSVMHEALHNHYTQKSLSLSPGK
light: B1 light 2
notes: IgG1; also called anti-TIGIT IgG1 antibody BA148

- EC50 (read off the curve) [4]: ~0.03 µg/mL
- Kd [5]: 0.59 nM
B3: anti-TIGIT×CD96 multispecific molecule BA127 (bispecific antibody, human IgG1, kappa, lambda)
heavy 1: QVQLVQSGAEVKKPGASVKVSCKASGYTFTTYALHWVRQAPGQRLEWMGWINTGSGDTKYSQKFQGRVTITRDTSASTAYMELSSLRSEDTAVYYCARSLGVYYGMDVWGQGTLVTVSSASTKGPSVFPLAPSSKSTSGGTAALGCLVKDYFPEPVTVSWNSGALTSGVHTFPAVLQSSGLYSLSSVVTVPSSSLGTQTYICNVNHKPSNTKVDKRVEPKSCDKTHTCPPCPAPELLGGPDVFLFPPKPKDTLMISRTPEVTCVVVDVSHEDPEVKFNWYVDGVEVHNAKTKPREEQYNSTYRVVSVLTVLHQDWLNGKEYKCKVSNKALPAPIEKTISKAKGQPREPQVYTLPPSREEMTKNQVSLSCAVKGFYPSDIAVEWESNGQPENNYKTTPPVLDSDGSFFLVSKLTVDKSRWQQGNVFSCSVMHEALHNHYTQKSLSLSPG
light 1: not shown
heavy 2: B1 heavy 2
light 2: B1 light 2
notes: Anti-CD96 arm = BA139, anti-TIGIT arm = BA150; copies: 1 + 1 + 1 + 1
